From patent US20240294622A1 come the findings set out here.

Assay [1] addresses HGREM1-His (ACRO) (human) (UniProt O60565). In words: ELISA: antibody coated, Gremlin-his titrated, anti-his-HRP; the concentration is that of Gremlin-his. For orientation: An ELISA detects its analyte on a solid surface through an enzyme-linked reagent.
The target is the same in assay [2]. The assay is described as follows: blocking ELISA, Human Gremlin-1 binding to BMP7; column Percentage.
The target is the same in assay [3]. The assay is described as follows: Fortebio: Gremlin-his loaded (2ug/ml) on the sensor, antibody at 100, 50 and 25 nM. (In general: BLI is a label-free optical method that tracks binding on a fibre tip over time.)
For assay [4] the target is unchanged. The assay is described as follows: ELISA, binding to hGremlin-his.
Assay [5] shares this target. In words: blocking ELISA, Human Gremlin-1 binding to BMP4; column OD450.
The target is the same in assay [6]. In words: competition ELISA, Gremlin-his binding to coated BMP7.
Assay [7] shares this target. The assay is described as follows: Fortebio: Gremlin-his loaded (2ug/ml), antibody at 25 nM; unit from the axis of the sensorgram.
For assay [8] the target is unchanged. The assay is described as follows: Fortebio: Gremlin-his loaded (2ug/ml) on the sensor, antibody at 100, 50 and 25 nM; kdis(1/s).
The target is the same in assay [9]. The assay is described as follows: blocking ELISA, Human Gremlin-1 binding to BMP2; column Percentage.
The target is the same in assay [10]. The assay is described as follows: blocking ELISA, Human Gremlin-1 binding to BMP4; column Percentage.
Assay [11] has the same target. The assay is described as follows: blocking ELISA, Human Gremlin-1 binding to BMP2; column OD450.
Assay [12] shares this target. In words: Fortebio: Gremlin-his loaded (2ug/ml), antibody at 100 nM; unit from the axis of the sensorgram.
The target of assay [13] is hGREM1 (source and construct not stated) (human) (UniProt O60565). In words: ELISA on hGREM1.
The target of assay [14] is HGREM1-His (ACRO) (human) (UniProt O60565). The assay is described as follows: Fortebio: Gremlin-his loaded (2ug/ml), antibody at 50 nM; unit from the axis of the sensorgram.
The target is the same in assay [15]. In words: blocking ELISA, Human Gremlin-1 binding to BMP7; column OD450.

HGREM1-His (ACRO) (human), sequence (O60565 25-184): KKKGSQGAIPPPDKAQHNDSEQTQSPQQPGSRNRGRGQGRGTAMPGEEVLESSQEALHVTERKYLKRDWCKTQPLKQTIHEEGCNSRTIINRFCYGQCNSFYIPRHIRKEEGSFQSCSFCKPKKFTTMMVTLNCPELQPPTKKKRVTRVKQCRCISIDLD
hGREM1 (source and construct not stated) (human), sequence (O60565 25-184 limits assumed): as the sequence (O60565 25-184) above

B1: benchmark antibody 6245P (antibody, from another filing, V domains shown)
VH: EVQLVESGGGLVQPGGSLRLSCAASGFTFNSFWMSWVRQAPGKGLEWVANIKQDGSEKYYVDSVKGRFTISRDNAKNSVYLQMNSLRAEDTAVYYCARDLVTSFDYWGQGTLVTVSS
VL: DIQMTQSPSSLSASVGDRVTITCQASQDINNYLNWYQQKPGKAPKLLIYDASYLETGVPSGFSGSGSGTDFTFTISSLQPEDIATYYCQQYDSLPYTFGQGTKLEIK
For the molecule B1, the EC50 (read off the curve) (commonly the concentration that produces a half-maximal response) in assay [1] is 0.01 µg/mL. In addition, the IC50 (as a rule, the midpoint of a concentration-inhibition curve) is 0.536 µg/mL in assay [2]; 0.638 µg/mL in assay [5]; 0.797 µg/mL in assay [9]; 0.638 µg/mL in assay [10]; 0.797 µg/mL in assay [11]; 0.536 µg/mL in assay [15]. In addition, in assay [3], the equilibrium dissociation constant (Kd) (in general, the concentration at which binding is half-saturated) is 2.58 nM. In assay [3], the kon (usually the second-order rate constant of association) is 338000 M⁻¹ s⁻¹. Besides, the half-maximal effective concentration (EC50) (usually the concentration giving half of the maximal effect) in [4] is 0.0575 µg/mL; in [13] it was 0.115 µg/mL. Besides, in assay [6], the maximal blocking percentage is less than 30%. In addition, the Response in [7] was 0.313 nm; in assay [12], 0.649 nm; in assay [14], 0.513 nm. Also, the koff (in general, the first-order rate constant of dissociation) in [8] was found to be 0.00087 s⁻¹.
